Here are results for three molecules from article PMC3217859, “Protein phosphatase 2a (PP2A) binds within the oligomerization domain of striatin and regulates the phosphorylation and activation of the mammalian Ste20-Like kinase Mst3” (BMC Biochemistry, 2011).

Holding throughout (test): co-IP; anti-HA immunoprecipitates (12CA5 with protein A-Sepharose, or F7 anti-HA-agarose when probing for Mst3 or Mst4; 1.5 h, 4°C) of lysates (1% Nonidet P-40, 0.135 M NaCl, 10% glycerol, 20 mM Tris pH 8.0) of HEK293 cells transfected with HA-striatins; endogenous partners by immunoblot, partner/HA-striatin ratio by chemilumimager against wild type; 50 mM NaF and 100 nM okadaic acid in the lysis buffer in the …
What all share (conditions): partners not purified
On the technique in general: Immunoblotting shows a protein as a band on a membrane.

In assay [1] the target is T1, HA-tagged R100S/R101E striatin (human, UniProt O43815 1-780, R100S | R101E).
T1 construct: striatin, human, double point mutant in the coiled-coil domain; source: HEK293, transfected, in lysate; not shown: HA, N-terminal, kept
T1 sequence (looked up): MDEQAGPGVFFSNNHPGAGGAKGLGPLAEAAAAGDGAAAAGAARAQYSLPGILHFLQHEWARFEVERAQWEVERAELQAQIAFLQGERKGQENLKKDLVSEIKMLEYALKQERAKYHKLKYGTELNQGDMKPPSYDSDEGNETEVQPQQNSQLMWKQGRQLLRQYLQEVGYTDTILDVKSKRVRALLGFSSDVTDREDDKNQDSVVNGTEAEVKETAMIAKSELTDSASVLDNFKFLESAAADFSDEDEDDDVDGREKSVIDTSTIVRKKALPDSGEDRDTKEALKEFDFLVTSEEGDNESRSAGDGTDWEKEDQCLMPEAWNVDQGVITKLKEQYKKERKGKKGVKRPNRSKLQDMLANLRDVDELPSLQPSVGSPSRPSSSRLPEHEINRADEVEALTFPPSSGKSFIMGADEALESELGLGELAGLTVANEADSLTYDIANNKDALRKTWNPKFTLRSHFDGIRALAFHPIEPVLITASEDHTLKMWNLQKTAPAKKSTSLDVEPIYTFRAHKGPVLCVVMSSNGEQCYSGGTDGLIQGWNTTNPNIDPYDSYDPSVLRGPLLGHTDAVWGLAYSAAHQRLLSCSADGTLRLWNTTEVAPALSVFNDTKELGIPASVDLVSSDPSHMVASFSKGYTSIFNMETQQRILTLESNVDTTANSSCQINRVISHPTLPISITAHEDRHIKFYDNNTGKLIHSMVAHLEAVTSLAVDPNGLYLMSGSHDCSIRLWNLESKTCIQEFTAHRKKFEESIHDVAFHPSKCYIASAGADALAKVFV

In assay [2] the target is T2, HA-tagged striatin with deletion of residues 191-269 (human, UniProt O43815 1-780, deletion of residues 191-269).
T2 construct: source: HEK293 or HEK293 stably expressing FLAG-CCM3, transfected, in lysate; not shown: HA, N-terminal, kept
T2 sequence (looked up): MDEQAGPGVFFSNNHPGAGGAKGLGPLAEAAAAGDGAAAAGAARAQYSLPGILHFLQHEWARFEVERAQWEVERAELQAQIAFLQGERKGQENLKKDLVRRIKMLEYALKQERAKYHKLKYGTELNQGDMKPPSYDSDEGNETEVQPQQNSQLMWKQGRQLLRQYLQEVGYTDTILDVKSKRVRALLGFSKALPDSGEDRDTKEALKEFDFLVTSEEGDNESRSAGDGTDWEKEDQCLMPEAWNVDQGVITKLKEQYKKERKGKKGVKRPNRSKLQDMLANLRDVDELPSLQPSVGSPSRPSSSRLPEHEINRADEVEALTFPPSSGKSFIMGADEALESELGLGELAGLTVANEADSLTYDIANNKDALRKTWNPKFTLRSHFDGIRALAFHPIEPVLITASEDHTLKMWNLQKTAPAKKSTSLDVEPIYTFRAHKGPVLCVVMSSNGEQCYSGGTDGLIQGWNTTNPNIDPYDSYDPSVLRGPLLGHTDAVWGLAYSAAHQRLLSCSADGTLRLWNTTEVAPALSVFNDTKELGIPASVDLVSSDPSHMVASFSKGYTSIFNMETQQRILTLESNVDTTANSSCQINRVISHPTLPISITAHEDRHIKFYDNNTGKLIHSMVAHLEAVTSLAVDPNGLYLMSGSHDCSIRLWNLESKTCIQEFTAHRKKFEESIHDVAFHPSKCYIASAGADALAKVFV

Assay [3] concerns the target T3, HA-tagged Δ(148-166) striatin (human, UniProt O43815 1-780, Δ(148-166)).
T3 construct: source: HEK293, transfected, in lysate; not shown: HA, N-terminal, kept
T3 sequence (looked up): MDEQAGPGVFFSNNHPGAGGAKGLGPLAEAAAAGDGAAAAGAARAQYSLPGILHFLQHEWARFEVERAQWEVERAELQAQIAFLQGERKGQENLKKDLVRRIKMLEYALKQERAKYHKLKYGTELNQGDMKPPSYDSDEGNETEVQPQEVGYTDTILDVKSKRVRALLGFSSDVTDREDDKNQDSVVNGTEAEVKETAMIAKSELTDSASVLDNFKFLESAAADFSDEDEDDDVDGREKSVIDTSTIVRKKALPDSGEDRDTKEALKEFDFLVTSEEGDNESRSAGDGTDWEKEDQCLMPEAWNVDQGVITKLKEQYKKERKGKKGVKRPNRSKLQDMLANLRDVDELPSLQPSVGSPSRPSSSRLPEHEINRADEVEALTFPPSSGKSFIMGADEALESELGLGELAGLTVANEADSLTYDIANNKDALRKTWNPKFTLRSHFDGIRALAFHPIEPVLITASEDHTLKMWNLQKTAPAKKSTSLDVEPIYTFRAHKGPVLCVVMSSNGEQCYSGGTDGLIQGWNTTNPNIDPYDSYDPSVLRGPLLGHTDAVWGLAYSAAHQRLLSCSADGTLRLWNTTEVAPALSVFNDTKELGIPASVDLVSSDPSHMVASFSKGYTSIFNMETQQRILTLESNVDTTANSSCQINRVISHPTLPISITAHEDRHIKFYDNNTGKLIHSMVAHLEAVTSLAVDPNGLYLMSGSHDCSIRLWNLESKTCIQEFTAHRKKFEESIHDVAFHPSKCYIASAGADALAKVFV

For assay [4], the target named is T4, HA-tagged Δ(270-344) striatin (human, UniProt O43815 1-780, Δ(270-344)).
T4 construct: source: HEK293 or HEK293 stably expressing FLAG-CCM3, transfected, in lysate; not shown: HA, N-terminal, kept
T4 sequence (looked up): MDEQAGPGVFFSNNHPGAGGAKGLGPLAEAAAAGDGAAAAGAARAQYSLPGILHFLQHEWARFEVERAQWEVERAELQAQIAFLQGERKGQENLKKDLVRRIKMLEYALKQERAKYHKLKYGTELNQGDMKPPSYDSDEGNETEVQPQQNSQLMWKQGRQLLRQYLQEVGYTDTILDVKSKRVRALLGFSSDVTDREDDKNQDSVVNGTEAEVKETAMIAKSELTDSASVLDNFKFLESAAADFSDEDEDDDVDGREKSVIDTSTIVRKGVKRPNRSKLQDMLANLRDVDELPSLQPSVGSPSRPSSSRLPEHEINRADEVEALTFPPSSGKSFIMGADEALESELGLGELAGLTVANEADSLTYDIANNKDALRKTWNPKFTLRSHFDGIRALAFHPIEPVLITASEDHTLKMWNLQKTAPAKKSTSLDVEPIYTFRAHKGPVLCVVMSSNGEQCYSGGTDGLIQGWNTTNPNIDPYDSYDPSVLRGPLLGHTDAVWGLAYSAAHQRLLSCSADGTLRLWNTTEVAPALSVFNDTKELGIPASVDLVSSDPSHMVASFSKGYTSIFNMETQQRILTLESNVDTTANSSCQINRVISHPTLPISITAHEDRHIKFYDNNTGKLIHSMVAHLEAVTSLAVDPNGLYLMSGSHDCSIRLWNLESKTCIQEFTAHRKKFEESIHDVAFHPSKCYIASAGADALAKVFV

In assay [5] the target is T5, HA-tagged Δ(227-309) striatin (human, UniProt O43815 1-780, Δ(227-309)).
T5 construct: source: HEK293, transfected, in lysate; not shown: HA, N-terminal, kept
T5 sequence (looked up): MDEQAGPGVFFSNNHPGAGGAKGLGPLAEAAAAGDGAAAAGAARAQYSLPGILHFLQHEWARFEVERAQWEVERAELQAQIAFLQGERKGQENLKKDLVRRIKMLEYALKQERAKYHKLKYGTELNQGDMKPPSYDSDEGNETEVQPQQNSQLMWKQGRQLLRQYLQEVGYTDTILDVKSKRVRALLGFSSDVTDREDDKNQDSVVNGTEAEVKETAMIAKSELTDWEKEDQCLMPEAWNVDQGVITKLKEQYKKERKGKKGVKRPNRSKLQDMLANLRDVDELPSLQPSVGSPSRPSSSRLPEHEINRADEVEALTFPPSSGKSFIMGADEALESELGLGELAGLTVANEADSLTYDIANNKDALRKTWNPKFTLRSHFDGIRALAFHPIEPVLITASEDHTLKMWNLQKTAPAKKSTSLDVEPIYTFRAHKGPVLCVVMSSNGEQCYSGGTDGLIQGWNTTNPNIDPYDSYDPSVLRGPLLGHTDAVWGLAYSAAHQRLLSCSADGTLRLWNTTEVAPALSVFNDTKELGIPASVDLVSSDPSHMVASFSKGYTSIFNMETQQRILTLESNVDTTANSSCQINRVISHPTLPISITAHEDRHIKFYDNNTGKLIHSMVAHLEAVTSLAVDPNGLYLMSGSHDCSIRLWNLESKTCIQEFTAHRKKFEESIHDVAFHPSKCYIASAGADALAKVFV

B1: S/G2 nuclear autoantigen (SG2NA) (natural protein, human (endogenous in HEK293), UniProt Q13033 1-797, looked up)
chain: MDELAGGGGGGPGMAAPPRQQQGPGGNLGLSPGGNGAAGGGGPPASEGAGPAAGPELSRPQQYTIPGILHYIQHEWARFEMERAHWEVERAELQARIAFLQGERKGQENLKKDLVRRIKMLEYALKQERAKYHKLKYGTELNQGDLKMPTFESEETKDTEAPTAPQNSQLTWKQGRQLLRQYLQEVGYTDTILDVRSQRVRSLLGLSNSEPNGSVETKNLEQILNGGESPKQKGQEIKRSSGDVLETFNFLENADDSDEDEENDMIEGIPEGKDKHRMNKHKIGNEGLAADLTDDPDTEEALKEFDFLVTAEDGEGAGEARSSGDGTEWDKDDLSPTAEVWDVDQGLISKLKEQYKKERKGKKGVKRANRTKLYDMIADLGDDELPHIPSGIINQSRSASTRMTDHEGARAEEAEPITFPSGGGKSFIMGSDDVLLSVLGLGDLADLTVTNDADYSYDLPANKDAFRKTWNPKYTLRSHFDGVRALAFHPVEPVLVTASEDHTLKLWNLQKTVPAKKSASLDVEPIYTFRAHIGPVLSLAISSNGEQCFSGGIDATIQWWNMPSPSVDPYDTYEPNVLAGTLVGHTDAVWGLAYSGIKNQLLSCSADGTVRLWNPQEKLPCICTYNGDKKHGIPTSVDFIGCDPAHMVTSFNTGSAVIYDLETSQSLVILSSQVDSGLQSNNHINRVVSHPTLPVTITAHEDRHIKFFDNKTGKMIHSMVAHLDAVTSLAVDPNGIYLMSGSHDCSIRLWNLDSKTCVQEITAHRKKLDESIYDVAFHSSKAYIASAGADALAKVFV
notes: SG2NA, striatin family member, endogenous in HEK293 cells; source: endogenous, HEK293 lysate
For B1, the “percent of the wild-type level bound” value in assay [1] is 81 % of wild-type level.

B2: mammalian Ste20-like kinase Mst3 (enzyme)
chain: not shown
notes: Mst3 kinase, endogenous in HEK293 cells; Runs as a lower and an upper (hyperphosphorylated) band; both are found with striatin; source: endogenous, HEK293 lysate
B2: the “percent reduction in binding against wild-type striatin” value in assay [2] was around 33%. Also, the “fold binding against wild-type striatin” value in assay [3] is around 3.5 fold.

B3: Mst4 kinase (enzyme)
chain: not shown
notes: Mst4 kinase, endogenous in HEK293 cells; source: endogenous, HEK293 lysate
Regarding B3, the figures for the “percent reduction in binding against wild-type striatin” value in assay [2], in assay [4] and in assay [5] were 33%, 75% and 38%, respectively. Further, in assay [3], the “fold binding against wild-type striatin” value is around 4 fold.
